Each block holds one binder with its values, some of them ahead of it.
Tests used:
4H3592-bN = target: T1, 4H3592-bN; assay: two-hybrid library CCNG1;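 further: natural log of median RNA to DNA barcode read ratio; higher means stronger binding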
T1 chain: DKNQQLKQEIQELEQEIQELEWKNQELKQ

4H3601-bN = target: T2, 4H3601-bN; assay: two-hybrid library CCNG1;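 further: natural log of median RNA to DNA barcode read ratio; higher means stronger binding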
T2 chain: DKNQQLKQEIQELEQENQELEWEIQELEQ

4H3907-bN = target: T3, 4H3907-bN; assay: two-hybrid library CCNG1;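 further: natural log of median RNA to DNA barcode read ratio; higher means stronger binding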
T3 chain: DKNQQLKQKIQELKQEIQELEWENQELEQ

4H4038-bN = target: T4, 4H4038-bN; assay: two-hybrid library CCNG1;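 further: natural log of median RNA to DNA barcode read ratio; higher means stronger binding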
T4 chain: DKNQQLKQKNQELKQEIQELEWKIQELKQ

4H1449-bN = target: T5, 4H1449-bN; assay: two-hybrid library CCNG1
T5 chain: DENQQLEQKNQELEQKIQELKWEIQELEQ

4H1544-bN = target: T6, 4H1544-bN; assay: two-hybrid library CCNG1
T6 chain: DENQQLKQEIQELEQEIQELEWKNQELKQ

4H1629-bN = target: T7, 4H1629-bN; assay: two-hybrid library CCNG1
T7 chain: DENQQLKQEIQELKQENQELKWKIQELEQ

4H1710-bN = target: T8, 4H1710-bN; assay: two-hybrid library CCNG1
T8 chain: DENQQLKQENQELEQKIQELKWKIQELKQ

4H1804-bN = target: T9, 4H1804-bN; assay: two-hybrid library CCNG1
T9 chain: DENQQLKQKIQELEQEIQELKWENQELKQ

4H1899-bN = target: T10, 4H1899-bN; assay: two-hybrid library CCNG1
T10 chain: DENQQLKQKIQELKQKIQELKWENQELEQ

4H1985-bN = target: T11, 4H1985-bN; assay: two-hybrid library CCNG1
T11 chain: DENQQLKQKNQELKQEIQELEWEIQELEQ

4H3129-bN = target: T12, 4H3129-bN; assay: two-hybrid library CCNG1
T12 chain: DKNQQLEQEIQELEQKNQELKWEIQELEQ

4H3172-bN = target: T13, 4H3172-bN; assay: two-hybrid library CCNG1
T13 chain: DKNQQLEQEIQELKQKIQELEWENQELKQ

4H3414-bN = target: T14, 4H3414-bN; assay: two-hybrid library CCNG1
T14 chain: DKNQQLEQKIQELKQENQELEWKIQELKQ

4H3613-bN = target: T15, 4H3613-bN; assay: two-hybrid library CCNG1
T15 chain: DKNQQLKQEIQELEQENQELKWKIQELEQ

4H3628-bN = target: T16, 4H3628-bN; assay: two-hybrid library CCNG1
T16 chain: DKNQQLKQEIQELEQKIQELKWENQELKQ

4H3631-bN = target: T17, 4H3631-bN; assay: two-hybrid library CCNG1
T17 chain: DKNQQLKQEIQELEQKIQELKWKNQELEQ

4H3638-bN = target: T18, 4H3638-bN; assay: two-hybrid library CCNG1
T18 chain: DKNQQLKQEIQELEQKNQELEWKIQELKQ

4H3817-bN = target: T19, 4H3817-bN; assay: two-hybrid library CCNG1
T19 chain: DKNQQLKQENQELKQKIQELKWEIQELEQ

4H3858-bN = target: T20, 4H3858-bN; assay: two-hybrid library CCNG1
T20 chain: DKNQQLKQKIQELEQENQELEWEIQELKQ

4H3974-bN = target: T21, 4H3974-bN; assay: two-hybrid library CCNG1
T21 chain: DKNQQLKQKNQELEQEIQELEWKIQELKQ

4H570-bN = target: T22, 4H570-bN; assay: two-hybrid library CCNG1
T22 chain: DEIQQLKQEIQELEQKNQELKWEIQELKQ

4H584-bN = target: T23, 4H584-bN; assay: two-hybrid library CCNG1
T23 chain: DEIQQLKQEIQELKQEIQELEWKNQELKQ

4H619-bN = target: T24, 4H619-bN; assay: two-hybrid library CCNG1
T24 chain: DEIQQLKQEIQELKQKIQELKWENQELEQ

4H850-bN = target: T25, 4H850-bN; assay: two-hybrid library CCNG1
T25 chain: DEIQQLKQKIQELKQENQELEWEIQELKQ

4H906-bN = target: T26, 4H906-bN; assay: two-hybrid library CCNG1
T26 chain: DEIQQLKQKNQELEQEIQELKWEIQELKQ

4H2586-bN = target: T27, 4H2586-bN; assay: two-hybrid library CCNG1
T27 chain: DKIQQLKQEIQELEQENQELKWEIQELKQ

4H2839-bN = target: T28, 4H2839-bN; assay: two-hybrid library CCNG1
T28 chain: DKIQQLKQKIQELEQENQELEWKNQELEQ

4H1821-AA = target: T29, 4H1821-AA; assay: two-hybrid library CCmax
T29 chain: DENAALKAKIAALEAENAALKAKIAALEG

4H1828-AA = target: T30, 4H1828-AA; assay: two-hybrid library CCmax; settings: mean of both orientations
T30 chain: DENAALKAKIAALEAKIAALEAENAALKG

4H1930-AA = target: T31, 4H1930-AA; assay: two-hybrid library CCmax; settings: mean of both orientations
T31 chain: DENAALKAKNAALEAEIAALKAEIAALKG

4H2124-AA = target: T32, 4H2124-AA; assay: two-hybrid library CCmax; settings: mean of both orientations
T32 chain: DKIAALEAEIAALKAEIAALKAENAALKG

4H2165-AA = target: T33, 4H2165-AA; assay: two-hybrid library CCmax; settings: mean of both orientations
T33 chain: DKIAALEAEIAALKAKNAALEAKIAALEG

4H2253-AA = target: T34, 4H2253-AA; assay: two-hybrid library CCmax; settings: mean of both orientations
T34 chain: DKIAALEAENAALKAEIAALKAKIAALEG

4H2330-AA = target: T35, 4H2330-AA; assay: two-hybrid library CCmax; settings: mean of both orientations
T35 chain: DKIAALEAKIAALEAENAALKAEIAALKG

4H2343-AA = target: T36, 4H2343-AA; assay: two-hybrid library CCmax; settings: mean of both orientations
T36 chain: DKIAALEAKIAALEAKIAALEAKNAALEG

4H2466-AA = target: T37, 4H2466-AA; assay: two-hybrid library CCmax; settings: mean of both orientations
T37 chain: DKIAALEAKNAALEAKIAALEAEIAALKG

4H249-AA = target: T38, 4H249-AA; assay: two-hybrid library CCmax; settings: mean of both orientations
T38 chain: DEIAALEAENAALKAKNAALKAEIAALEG

4H2592-AA = target: T39, 4H2592-AA; assay: two-hybrid library CCmax; settings: mean of both orientations
T39 chain: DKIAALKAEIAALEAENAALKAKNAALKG

4H2732-AA = target: T40, 4H2732-AA; assay: two-hybrid library CCmax; settings: mean of both orientations
T40 chain: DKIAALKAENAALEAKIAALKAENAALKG

4H2774-AA = target: T41, 4H2774-AA; assay: two-hybrid library CCmax; settings: mean of both orientations
T41 chain: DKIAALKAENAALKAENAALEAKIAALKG

4H2931-AA = target: T42, 4H2931-AA; assay: two-hybrid library CCmax; settings: mean of both orientations
T42 chain: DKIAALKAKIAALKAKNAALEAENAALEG

4H3001-AA = target: T43, 4H3001-AA; assay: two-hybrid library CCmax
T43 chain: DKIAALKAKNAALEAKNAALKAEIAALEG

4H3015-AA = target: T44, 4H3015-AA; assay: two-hybrid library CCmax; settings: mean of both orientations
T44 chain: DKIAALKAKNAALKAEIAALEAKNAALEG

4H3073-AA = target: T45, 4H3073-AA; assay: two-hybrid library CCmax; settings: mean of both orientations
T45 chain: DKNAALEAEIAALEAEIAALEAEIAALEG

4H3438-AA = target: T46, 4H3438-AA; assay: two-hybrid library CCmax; settings: mean of both orientations
T46 chain: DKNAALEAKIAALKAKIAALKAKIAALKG

4H347-AA = target: T47, 4H347-AA; assay: two-hybrid library CCmax; settings: mean of both orientations
T47 chain: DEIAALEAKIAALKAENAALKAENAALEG

4H406-AA = target: T48, 4H406-AA; assay: two-hybrid library CCmax; settings: mean of both orientations
T48 chain: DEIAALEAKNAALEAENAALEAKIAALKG

4H452-AA = target: T49, 4H452-AA; assay: two-hybrid library CCmax; settings: mean of both orientations
T49 chain: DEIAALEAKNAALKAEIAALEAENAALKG

4H56-AA = target: T50, 4H56-AA; assay: two-hybrid library CCmax; settings: mean of both orientations
T50 chain: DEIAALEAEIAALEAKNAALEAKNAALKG

4H_APH = target: T51, 4H_APH; assay: two-hybrid library CCmax; settings: mean of both orientations
T51 chain: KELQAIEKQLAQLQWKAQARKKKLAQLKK

4H_BCR = target: T52, 4H_BCR; assay: two-hybrid library CCmax; settings: mean of both orientations
T52 chain: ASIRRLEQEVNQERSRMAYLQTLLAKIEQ

4H_GCN4 = assay: two-hybrid library CCmax
GCN2_T = assay: two-hybrid library CCmax; settings: mean of both orientations

Sequence of 4H_GCN4 (chain, as listed by the source): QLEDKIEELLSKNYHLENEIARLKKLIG

interaction score (4H1629-bN): 1.42
interaction score (4H1710-bN): -0.768
interaction score (4H1804-bN): -2.35
interaction score (4H1985-bN): -0.575
interaction score (4H2586-bN): -1.65
interaction score (4H2839-bN): -1.72
interaction score (4H3129-bN): -0.732
interaction score (4H3172-bN): -0.119
interaction score (4H3414-bN): -0.735
interaction score (4H3631-bN): -0.59
interaction score (4H3638-bN): -1.43
interaction score (4H3817-bN): -2.51
interaction score (4H3974-bN): -0.785
interaction score (4H570-bN): -2.4
interaction score (4H584-bN): -0.0341
interaction score (4H619-bN): -0.476
interaction score (4H850-bN): -0.949
interaction score (4H906-bN): -1.39
B3: 4H1629-bN (peptide)
chain: DENQQLKQEIQELKQENQELKWKIQELEQ

interaction score (4H1821-AA): 1.48
interaction score (4H1828-AA): -2.13
interaction score (4H1930-AA): -1.43
interaction score (4H2124-AA): -1.19
interaction score (4H2165-AA): -1.28
interaction score (4H2253-AA): -0.989
interaction score (4H2330-AA): -0.746
interaction score (4H2343-AA): -1.42
interaction score (4H2466-AA): -1.51
interaction score (4H249-AA): -1.68
interaction score (4H2592-AA): -1.24
interaction score (4H2732-AA): -1.04
interaction score (4H2774-AA): -1.53
interaction score (4H2931-AA): -1.77
interaction score (4H3001-AA): -1.51
interaction score (4H3015-AA): -1.83
interaction score (4H3073-AA): -1.15
interaction score (4H3438-AA): -1.77
interaction score (4H347-AA): -1.26
interaction score (4H406-AA): -1.34
interaction score (4H452-AA): -1.25
interaction score (4H56-AA): -1.44
interaction score (4H_APH): -2.19
interaction score (4H_BCR): -1.69
interaction score (4H_GCN4): -1.85
interaction score (GCN2_T): -1.68
B4: 4H1821-AA (peptide)
chain: DENAALKAKIAALEAENAALKAKIAALEG

Continued, binder first:

B1: 4H3592-bN (peptide)
chain: DKNQQLKQEIQELEQEIQELEWKNQELKQ
interaction score (4H3592-bN): -0.397
interaction score (4H3601-bN): -0.0551
interaction score (4H3907-bN): -1.47
interaction score (4H4038-bN): -0.372

B2: 4H1449-bN (peptide)
chain: DENQQLEQKNQELEQKIQELKWEIQELEQ
interaction score (4H1449-bN): -0.847
interaction score (4H1544-bN): -1.72
interaction score (4H1629-bN): -0.745
interaction score (4H1710-bN): -0.246
interaction score (4H1804-bN): -2.5
interaction score (4H1899-bN): -0.773
interaction score (4H1985-bN): -1.29
interaction score (4H3129-bN): -2.48
interaction score (4H3172-bN): -0.588
interaction score (4H3414-bN): -0.742
interaction score (4H3613-bN): -1.42
interaction score (4H3628-bN): -0.461
interaction score (4H3631-bN): -0.391
interaction score (4H3638-bN): -1.08
interaction score (4H3817-bN): -1.76
interaction score (4H3858-bN): -0.776
interaction score (4H3974-bN): 1.15
interaction score (4H570-bN): -0.581
interaction score (4H584-bN): -0.471
interaction score (4H619-bN): -0.984
interaction score (4H850-bN): -1.83
interaction score (4H906-bN): -1.69
